Test [1] addresses T1, human MSLN-R3-his protein (human, UniProt Q13421 487-598).
T1 construct: MSLN-R3 = Met487-Ser598; also called hMSLN-R3-his; not shown: histidine tag
As to the kind of experiment: ELISA, antibody 0.01 nM.

Test [2] deals with T2, human MSLN-R1-his protein (human, UniProt Q13421 296-390).
T2 construct: MSLN-R1 = Glu296-Thr390; also called hMSLN-R1-his; not shown: histidine tag
T2 chain: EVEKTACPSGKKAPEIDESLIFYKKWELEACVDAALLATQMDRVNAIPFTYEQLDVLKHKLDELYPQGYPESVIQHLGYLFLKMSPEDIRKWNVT
The test can be described thus: ELISA, antibody 0 nM (blank).

In test [3] the target is T1, human MSLN-R3-his protein. As to the kind of experiment: ELISA, antibody 10 nM.
For test [4], the target named is T1, human MSLN-R3-his protein. The test can be described thus: ELISA, antibody 0.1 nM.
In test [5] the target is T3, human MSLN-R2-his protein (human, UniProt Q13421 391-486).
T3 construct: MSLN-R2 = Ser391-Asn486; also called hMSLN-R2-his; not shown: histidine tag
The test can be described thus: ELISA, antibody 0.001 nM.

Test [6] addresses T4, human MSLN-FL-his protein (human, UniProt Q13421 296-580).
T4 construct: Made in HEK293E cells, purified on nickel column; also called hMSLN-FL-his; not shown: histidine tag
As to the kind of experiment: competitive ELISA on MSLN-FL-His; other antibody: NB148-35 (3.m4).

Test [7] has as its target T4, human MSLN-FL-his protein. As to the kind of experiment: competitive ELISA on MSLN-FL-His; other antibody: NB148-25 (3.m2).
Protocol: (§1) To identify a binding site of an antibody to an antigen, MSLN VHH-hFc was grouped using a competitive ELISA method.
(§2) VHH-hFc was diluted to 2 μg/mL with PBS, and coated 96-well high-adsorption ELISA plates at 50 μL/well overnight at 4° C., 250 μL of blocking buffer (PBS containing 2% (w/w) BSA) was added for two hours of blocking at room temperature, 40 μg/mL of antibody to be tested was added, the human MSLN-FL-His protein with a concentration of EC80 corresponding to each antibody to be tested was then added for 2 hours of incubation, washing was performed with PBS 5 times, an HRP-labeled anti-His secondary antibody (purchased from Genescript, Cat. No. A00612) was then added for 1 hour of incubation, and the plates were washed 5 times. TMB substrate was added at 50 μl per well, and after 10 minutes of incubation at room temperature, stop solution (1.0 M HCl) was added at 50 μl per well. OD450 nm values were read using an ELISA plate reader (Insight, purchased from PerkinElmer), and the competition rate between the antibodies was calculated according to the OD450 nm values using a formula.
Test [8] concerns the target T3, human MSLN-R2-his protein. As to the kind of experiment: ELISA, antibody 100 nM.
Test [9] concerns the target T2, human MSLN-R1-his protein. As to the kind of experiment: ELISA, antibody 0.001 nM.
Test [10] has as its target T1, human MSLN-R3-his protein. As to the kind of experiment: ELISA, antibody 1 nM.
Test [11] has as its target T3, human MSLN-R2-his protein. The test can be described thus: ELISA, antibody 0 nM (blank).
The target in test [12] is T1, human MSLN-R3-his protein. As to the kind of experiment: ELISA, antibody 0 nM (blank).
Test [13] has as its target T4, human MSLN-FL-his protein. The test can be described thus: competitive ELISA on MSLN-FL-His; other antibody: NB149-70 (3.m9).
Protocol: as §1, §2
In test [14] the target is T4, human MSLN-FL-his protein. As to the kind of experiment: competitive ELISA on MSLN-FL-His; other antibody: NB148-46 (3.m5).
Protocol: as §1, §2

T3 sequence (Q13421 other isoform, or with tags, fused parts or gaps): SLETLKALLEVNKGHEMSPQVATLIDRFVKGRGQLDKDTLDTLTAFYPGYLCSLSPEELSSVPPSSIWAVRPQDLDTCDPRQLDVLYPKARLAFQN
T1 sequence (Q13421 495-606): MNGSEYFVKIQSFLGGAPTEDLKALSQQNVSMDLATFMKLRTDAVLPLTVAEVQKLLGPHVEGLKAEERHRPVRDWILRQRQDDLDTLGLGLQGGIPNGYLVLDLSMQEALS

B1: Tab107 (YP3, hIgG1) (antibody, V domains shown)
VH: QEQLVESGGGLVQPGASLTLTCTASGIDFSRYYMCWVRQAPGKGLEGIACIYIGGSGSTYYASWAKGRFTISKASSTTVTLQMTSLTAADTATYFCARGTNLNYIFRLWGPGTLVTVSS
VL: DVVMTQTPSPVSAAVGGTVTIKCQASQSINNGLAWYQQKPGQPPRLLIYSASNLESGVPSRFKGSGSGTEFTLTISDLECDDAATYYCQCIWDGNSYVNAFGGGTEVVVRT
notes: also called YP3 human IgG1 antibody
As for B1, the OD450 nm in test [1] came out at 0.04; in test [2], 0.05; in test [3] it was 0.05; in test [4], 0.05; in test [5], 0.05; in test [8], 0.09. Moreover, the OD450 nm in [9], in [10], in test [11] and in test [12] was 0.05 throughout. Further, the inhibition rate in [6] is 26%; in [7], 23%; in [13] it was -10%; in test [14], 7%.

The record behind these values is US20240124563A1 (NANJING ZAIMING PHARMACEUTICAL, published 2024).
